# Columns and labels:
# [1] = biological target: the molecule itself; assay: AUC; sedimentation velocity; 0.5 mg/ml in 20 mM phosphate buffer pH 7.4, 18,000 rpm, 20 °C, An50Ti rotor; SEDFIT (Lamm equation); self-association into large oligomers
# [2] = biological target: the molecule itself; assay: dynamic light scattering; 1 mg/ml in PBS pH 7.4, filtered through 0.22 μm, 25 °C; hydrodynamic radius; self-association
Protein,stoichiometry N [1],binding result [2]
"α-chain of human clusterin (α-Clu), recombinant (domain or fragment, UniProt P10909 23-227, looked up, The printed primers encode M-DQTVSD... at the start and ...RIVR-stop at the end; Printed theoretical subunit mass: 24 kDa; The NdeI site of the forward primer adds an initiator Met before D23; Not glycosylated (bacterial). cDNA came from IMR32 human neuroblastoma cells; also called α-clusterin) DQTVSDNELQEMSNQGSKYVNKEIQNAVNGVKQIKTLIEKTNEERKTLLSNLEEAKKKKEDALNETRESETKLKELPGVCNETMMALWEECKPCLKQTCMKFYARVCRSGSGLVGRQLEEFLNQSSPFYFWMNGDRIDSLLENDRQQTHMLDVMQDHFSRASSIIDELFQDRFFTREPQDTYHYLPFSLPHRRPHFFFPKSRIVR",~60 subunits per oligomer,
"β-chain of human clusterin (β-Clu), recombinant (domain or fragment, UniProt P10909 228-449, looked up, The printed primers encode M-SLMPFSP... at the start and ...HREE-stop at the end; The NdeI site of the forward primer adds an initiator Met before S228; Not glycosylated (bacterial). cDNA came from IMR32 human neuroblastoma cells; also called β-clusterin) SLMPFSPYEPLNFHAMFQPFLEMIHEAQQAMDIHFHSPAFQHPPTEFIREGDDDRTVCREIRHNSTGCLRMKDQCDKCREILSVDCSTNNPSQAKLRRELDESLQVAERLTRKYNELLKSYQWKMLNTSSLLEQLNEQFNWVSRLANLTQGEDQYYLRVTTVASHTSDSDVPSGVTEVVVKLFDSDPITVTVPVEVSRKNPKFMETVAEKALQEYRKKHREE",,binds

# Source: publication PMC5264606, “Clusterin: full-length protein and one of its chains show opposing effects on cellular lipid accumulation” (Scientific Reports, 2017)
